According to paper PMC2699497:

Legend:
[1] = molecular target: T1, human uracil DNA glycosylase (UNG) (human, UniProt P13051 94-313); assay: fluorescence anisotropy
[2] = molecular target: T1, human uracil DNA glycosylase (UNG); assay: NMR HSQC titration, relaxation dispersion

T1 sequence (P13051 94-313): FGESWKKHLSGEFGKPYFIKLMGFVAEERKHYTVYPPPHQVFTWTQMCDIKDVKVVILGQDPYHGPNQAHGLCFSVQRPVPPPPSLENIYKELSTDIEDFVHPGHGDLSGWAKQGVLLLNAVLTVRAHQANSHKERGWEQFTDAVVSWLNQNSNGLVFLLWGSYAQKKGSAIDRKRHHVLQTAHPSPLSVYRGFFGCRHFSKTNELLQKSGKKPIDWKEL

Binder	Kd [1] [µM]	binding result [2]
5'-FAM 10-mer nontarget duplex (dsDNA) DNA 1: TCGATCGATG DNA 2: CATCGATCGA	29 ± 0.4	–
unlabeled 10-mer nontarget duplex (NMR) (dsDNA) DNA 1: CTGGATCCAG DNA 2: CTGGATCCAG	–	binds
